Columns and labels:
[1] = molecular target: T1, ICU11-GST, recombinant (gel filtration) (Arabidopsis thaliana, UniProt Q3ED68 1-397); experiment: SEC; purified proteins mixed in equivalent molar amounts, 4 °C overnight, Superose 6 10/300GL; fractions detected by immunoblotting (GST, FLAG, MBP, HIS); conditions: both partners purified
T1 construct: ICU11, Arabidopsis thaliana, AT1G22950; full length in pGEX6P-1; May be the same construct as m20 in some pull-downs; source: E. coli BL21, purified (GST beads)
T1 sequence (looked up): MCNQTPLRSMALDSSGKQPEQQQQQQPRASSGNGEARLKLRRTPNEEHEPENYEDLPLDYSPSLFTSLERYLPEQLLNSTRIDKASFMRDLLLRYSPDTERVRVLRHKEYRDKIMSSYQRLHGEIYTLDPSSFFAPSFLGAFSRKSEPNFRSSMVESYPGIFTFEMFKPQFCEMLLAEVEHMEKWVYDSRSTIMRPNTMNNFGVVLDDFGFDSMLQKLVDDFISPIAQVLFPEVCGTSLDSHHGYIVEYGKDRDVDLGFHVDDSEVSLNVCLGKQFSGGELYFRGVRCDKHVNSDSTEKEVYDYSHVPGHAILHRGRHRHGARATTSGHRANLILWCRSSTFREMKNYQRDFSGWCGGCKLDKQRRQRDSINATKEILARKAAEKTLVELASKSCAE

[2] = molecular target: T2, ICU11, recombinant, GST- or MBP-tagged (pull-down) (Arabidopsis thaliana, UniProt Q3ED68 1-397); experiment: pull-down; purified proteins mixed in GST-tag lysis buffer (20 mM Tris-HCl pH 7.5, 150 mM NaCl, 1 mM DTT) at 4 °C for 1 h, then GST or MBP beads; immunoblot with GST, MBP or His antibody; conditions: both partners purified
T2 construct: ICU11, Arabidopsis thaliana, AT1G22950; full length in pGEX6P-1 (GST) or pET-30a (MBP); source: E. coli BL21, purified (GST beads or MBP beads); not shown: GST or MBP (both forms were made)
T2 sequence (looked up): T1 sequence (looked up)

[3] = molecular target: T3, TRB1 (Arabidopsis thaliana, UniProt Q8VWK4 1-300); experiment: EMSA; EMSA: 10 mM Tris-HCl pH 7.5, 50 mM NaCl, 1 mM EDTA, 5% glycerol, 1 mM DTT, 25 C, 30 min, 20 ng DNA + 1 ug protein; ITC: 20 mM Tris-HCl pH 7.5, 150 mM NaCl, 25 C, 5 uM protein, 100 uM DNA; conditions: protein: recombinant; tags: His; label: Cy5 at 5' of strand 1; blunt
T3 sequence: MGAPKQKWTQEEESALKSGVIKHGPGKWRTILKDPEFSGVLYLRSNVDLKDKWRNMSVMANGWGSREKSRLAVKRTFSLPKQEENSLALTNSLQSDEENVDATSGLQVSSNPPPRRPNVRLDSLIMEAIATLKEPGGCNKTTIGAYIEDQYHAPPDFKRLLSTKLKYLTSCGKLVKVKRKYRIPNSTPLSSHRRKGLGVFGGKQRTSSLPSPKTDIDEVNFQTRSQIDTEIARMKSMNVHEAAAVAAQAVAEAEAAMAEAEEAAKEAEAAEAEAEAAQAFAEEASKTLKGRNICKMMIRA

[4] = molecular target: T4, TRB1-1 (Arabidopsis thaliana, UniProt Q8VWK4 1-185); experiment: as above; conditions: protein: recombinant; tags: His; label: Cy5 at 5' of strand 1; blunt
T4 sequence: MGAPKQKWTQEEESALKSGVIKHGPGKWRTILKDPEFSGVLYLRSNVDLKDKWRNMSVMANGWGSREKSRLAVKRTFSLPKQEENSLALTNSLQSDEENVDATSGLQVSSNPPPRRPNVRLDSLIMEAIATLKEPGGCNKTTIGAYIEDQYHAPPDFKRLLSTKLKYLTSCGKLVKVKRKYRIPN

[5] = molecular target: T5, TRB1-GH1Δ (Arabidopsis thaliana, UniProt Q8VWK4 1-300, del114-185); experiment: as above; conditions: protein: recombinant; label: Cy5 at 5' of strand 1; blunt
T5 sequence: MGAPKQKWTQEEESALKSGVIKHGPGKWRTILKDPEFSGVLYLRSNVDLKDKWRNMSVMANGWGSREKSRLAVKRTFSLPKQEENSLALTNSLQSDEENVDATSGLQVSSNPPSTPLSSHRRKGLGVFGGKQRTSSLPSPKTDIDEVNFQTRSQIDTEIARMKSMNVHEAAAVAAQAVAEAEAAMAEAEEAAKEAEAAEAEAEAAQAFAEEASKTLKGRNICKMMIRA

[6] = molecular target: T6, TRB2 (Arabidopsis thaliana, UniProt Q9FJW5 1-299); experiment: as above; conditions: protein: recombinant; tags: His; label: Cy5 at 5' of strand 1; blunt
T6 sequence: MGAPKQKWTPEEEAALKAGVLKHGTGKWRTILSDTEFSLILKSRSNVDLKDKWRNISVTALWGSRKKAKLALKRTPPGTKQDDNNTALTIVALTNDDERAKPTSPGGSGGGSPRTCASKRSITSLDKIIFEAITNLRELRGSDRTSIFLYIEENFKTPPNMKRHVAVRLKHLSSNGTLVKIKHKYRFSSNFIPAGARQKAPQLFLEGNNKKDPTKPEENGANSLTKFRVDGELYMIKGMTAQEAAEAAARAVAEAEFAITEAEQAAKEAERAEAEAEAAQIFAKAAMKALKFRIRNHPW

[7] = molecular target: T7, TRB1-MybΔ-GH1Δ (Arabidopsis thaliana, UniProt Q8VWK4 61-300, del1-60;del114-185); experiment: as above; conditions: protein: recombinant; label: Cy5 at 5' of strand 1; blunt
T7 sequence: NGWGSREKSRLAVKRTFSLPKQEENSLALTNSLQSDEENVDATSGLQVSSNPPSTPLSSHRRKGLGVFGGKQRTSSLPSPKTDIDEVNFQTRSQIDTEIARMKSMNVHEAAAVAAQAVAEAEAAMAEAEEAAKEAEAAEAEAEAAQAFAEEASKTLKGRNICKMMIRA

[8] = molecular target: T8, TRB3 (Arabidopsis thaliana, UniProt Q9M2X3 1-295); experiment: as above; conditions: protein: recombinant; tags: His; label: Cy5 at 5' of strand 1; blunt
T8 sequence: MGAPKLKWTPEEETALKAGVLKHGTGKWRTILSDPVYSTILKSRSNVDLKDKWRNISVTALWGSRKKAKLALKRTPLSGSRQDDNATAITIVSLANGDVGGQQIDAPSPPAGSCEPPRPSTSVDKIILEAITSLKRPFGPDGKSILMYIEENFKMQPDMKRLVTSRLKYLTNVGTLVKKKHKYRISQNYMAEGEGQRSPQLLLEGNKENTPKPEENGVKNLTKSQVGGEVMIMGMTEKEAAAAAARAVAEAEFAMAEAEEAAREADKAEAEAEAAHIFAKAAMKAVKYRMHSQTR

[9] = molecular target: T9, TRB1;HTH1 (Arabidopsis thaliana;Arabidopsis …, UniProt Q8VWK4;Q9SHL4 1-300;1-275, |); experiment: EMSA; larger complex, enhanced vs TRB1 alone; EMSA: 10 mM Tris-HCl pH 7.5, 50 mM NaCl, 1 mM EDTA, 5% glycerol, 1 mM DTT, 25 C, 30 min, 20 ng DNA + 1 ug protein; ITC: 20 mM Tris-HCl pH 7.5, 150 mM NaCl, 25 C, 5 uM protein, 100 uM DNA; conditions: protein: recombinant;recombinant; tags: His;His or MBP (EMSA construct not specified); label: Cy5 at 5' of strand 1; blunt
T9 sequence 1: T3 sequence
T9 sequence 2: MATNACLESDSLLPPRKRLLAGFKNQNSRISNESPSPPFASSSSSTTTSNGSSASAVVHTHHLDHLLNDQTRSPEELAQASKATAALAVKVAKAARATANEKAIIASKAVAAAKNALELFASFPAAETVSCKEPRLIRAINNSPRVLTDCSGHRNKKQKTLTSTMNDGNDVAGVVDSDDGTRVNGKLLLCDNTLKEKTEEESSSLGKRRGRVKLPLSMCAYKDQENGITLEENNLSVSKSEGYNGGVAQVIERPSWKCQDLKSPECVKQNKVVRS

[10] = molecular target: T10, TRB1;NAC050-N (Arabidopsis thaliana;Arabidopsis …, UniProt Q8VWK4;Q9SQX9 1-300;1-184, |); experiment: as above; conditions: protein: recombinant;recombinant; tags: His;MBP; label: Cy5 at 5' of strand 1; blunt
T10 sequence 1: T3 sequence
T10 sequence 2: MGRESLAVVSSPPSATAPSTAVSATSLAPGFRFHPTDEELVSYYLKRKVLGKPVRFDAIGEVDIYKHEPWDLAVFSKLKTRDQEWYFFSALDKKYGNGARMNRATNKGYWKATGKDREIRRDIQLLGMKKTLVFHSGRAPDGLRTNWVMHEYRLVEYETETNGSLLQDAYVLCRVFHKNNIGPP

[11] = molecular target: T9, TRB1;HTH1; experiment: ITC; enhanced vs TRB1 alone; Kd only in figure; EMSA: 10 mM Tris-HCl pH 7.5, 50 mM NaCl, 1 mM EDTA, 5% glycerol, 1 mM DTT, 25 C, 30 min, 20 ng DNA + 1 ug protein; ITC: 20 mM Tris-HCl pH 7.5, 150 mM NaCl, 25 C, 5 uM protein, 100 uM DNA; conditions: protein: recombinant;recombinant; tags: His;His or MBP (EMSA construct not specified); blunt
[12] = molecular target: T10, TRB1;NAC050-N; experiment: as above; conditions: protein: recombinant;recombinant; tags: His;MBP; blunt

B1: TRB1-His, recombinant (natural protein, Arabidopsis thaliana, UniProt Q8VWK4 1-300, looked up)
chain: T3 sequence
notes: TRB1, Arabidopsis thaliana, AT1G49950; full length in the vector pSMT3; pSMT3 is recalled to add an N-terminal His-SUMO; source: E. coli BL21, purified (His beads)
**Q.** Which results are given for B1?
**A.** binding result [1]: binds; binding result [2]: binds

B2: Probe 1 (P1) (dsDNA)
DNA 1: ATCGAATTTAGGGCAAAATG
DNA 2: CATTTTGCCCTAAATTCGAT
**Q.** Which results are given for B2?
**A.** binding result [3]: binds; binding result [4]: binds; binding result [5]: binds; binding result [6]: binds; binding result [7]: no binding; binding result [8]: binds; binding result [9]: binds; binding result [10]: binds

B3: Probe 1 for ITC (dsDNA)
DNA 1: ATCGAATTTAGGGCAAAATG
DNA 2: CATTTTGCCCTAAATTCGAT
**Q.** Does B3 bind [11]?
**A.** Result: binds

**Q.** Does B3 bind [12]?
**A.** Result: binds

Reference: publication PMC12713088, “Arabidopsis TRB Proteins Form Two Closely Related Complexes to Mediate H3K4me3 Demethylation and Transcriptional Repression” (Advanced Science, 2025)
